Reference: patent US12121566B2, “Methods for treating gout” (Horizon Therapeutics USA, Inc., priority 2019, dated 2024)

Columns and labels:
[1] = test system: subjects weighing ≥120 kg; assay: Analysis of prior pegloticase randomized clinical trials by body weight (>=120 kg); type: in vivo, human; conditions: ≥120 kg group
[2] = test system: patients with refractory chronic gout; conditions: Phase 2 program; cited from earlier work
[3] = test system: anti-pegloticase antibodies, anti-PEG antibodies; conditions: cited from earlier work
[4] = test system: patients with chronic gout refractory to conventional therapy; conditions: bi-weekly or every 4 weeks for up to 30 months, 149 patients; cited from earlier work
[5] = test system: patients with chronic gout refractory to conventional therapy; assay: Adverse reactions in pre-marketing controlled clinical trials of KXX; type: in vivo, human
Method: During the second 3 months of treatment, a lower proportion of pegloticase-treated patients experienced flares than patients receiving placebo. The incidence of flares during this time period was lowest in the group receiving pegloticase 8 mg every 2 weeks than in the group who received pegloticase 8 mg every 4 weeks, as was the incidence of infusion-related reactions (26% with biweekly dosing vs. 40% with the every-4-week dosing regimen). Both infusion reactions (IRs) and gout flares were least common in patients with sustained urate-lowering responses to treatment and those who received bi-weekly treatment. In most pegloticase-treated patients with IRs, a loss of response to pegloticase (return to SUA>6 mg/dL) preceded the time of the first IR (20/21; 95%).
The most commonly reported serious adverse reactions from pre-marketing controlled clinical trials were anaphylaxis, which occurred at a frequency of 6.5% in patients treated with KXX 8 mg every 2 weeks, compared to none with placebo; infusion reactions, which occurred at a frequency of 26% in patients treated with KXX 8 mg every 2 weeks, compared to 5% treated with placebo; and gout flares, which were more common during the first 3 months of treatment with KXX compared with placebo. All patients in pre-marketing controlled clinical trials were pre-treated with an oral antihistamine, intravenous corticosteroid and/or acetaminophen to prevent anaphylaxis and infusion reaction.
The data described below reflect exposure to KXX in patients with chronic gout refractory to conventional therapy in two replicate randomized, placebo-controlled, double-blind 6-month clinical trials: 85 patients were treated with KXX 8 mg every 2 weeks; 84 patients were treated with KXX 8 mg every 4 weeks; and 43 patients were treated with placebo. These patients were between the ages of 23 and 89 years (average 55 years); 173 patients were male and 39 were female; and 143 patients were White/Caucasian, 27 were Black/African American, 24 were Hispanic/Latino and 18 were all other ethnicities. Common co-morbid conditions among the enrolled patients included hypertension (72%), dyslipidemia (49%), chronic kidney disease (28%), diabetes (24%), coronary artery disease (18%), arrhythmia (16%), and cardiac failure/left ventricular dysfunction (12%).
Diagnostic criteria of anaphylaxis were skin or mucosal tissue involvement, and, either airway compromise, and/or reduced blood pressure with or without associated symptoms, and a temporal relationship to KXX or placebo injection with no other identifiable cause. Using these clinical criteria, anaphylaxis was identified in 14 (5.1%) of 273 total patients studied in the clinical program of IV KXX. The frequency was 6.5% for the every 2-week dosing regimen (8 of 123 patients), and 4.8% for the 4-week dosing frequency (6 of 126) of KXX. There were no cases of anaphylaxis in patients receiving placebo.

[6] = test system: anti-pegloticase antibodies, anti-PEG antibodies; assay: Immunogenicity in clinical trials: antibody incidence and its relation to response and infusion reactions; type: in vivo, human
Method: A relationship between the loss of urate-lowering efficacy, incidence of IRs, and high-titer antibody formation was identified in a post-hoc analysis of the pooled data from the Phase 3 studies. […] In one study, 69 (41%) of 169 patients receiving pegloticase developed high titer anti-pegloticase antibodies and subsequently lost response to the drug. In a second study, only 1 of 52 participants with high antibody titers maintained a response to pegloticase (serum urate <6 mg/dL). In addition, 60% participants with high titers developed IR. Anti-pegloticase antibodies were largely directed to the polyethylene glycol (PEG) portion of the molecule and altered the pharmacokinetic clearance of pegloticase, resulting in inhibition of SUA lowering activity. […] In addition, 31 of 52 (60%) patients with titers exceeding 1:2430 developed IRs. […] By preventing the formation of anti-pegloticase antibodies, a tolerizing dose regimen should prevent loss of response to the drug and decrease the incidence of IRs associated with it.
Anti-pegloticase antibodies developed in 92% of patients treated with KXX every 2 weeks, and 28% for placebo. Anti-PEG antibodies were also detected in 42% of patients treated with KXX. High anti-pegloticase antibody titer was associated with a failure to maintain pegloticase-induced normalization of uric acid. The impact of anti-PEG antibodies on patients' responses to other PEG-containing therapeutics is unknown.
There was a higher incidence of infusion reactions in patients with high anti-pegloticase antibody titer: 53% (16 of 30) in the KXX every 2 weeks group compared to 6% in patients who had undetectable or low antibody titers.

[7] = KXX 8 mg every 2 weeks (N = 85)

Substance: pegloticase
- impact on serum urate [1]: less
- initial serum peak of pegloticase (Cmax) [1]: lower
- tendency to become non-responders [1]: greater tendency to become non-responders
- dose-response plateau dose [2]: 12 mg
- minimally effective dose [2]: 4 mg
- safe and optimally effective dose [2]: 8 mg
- patients with antibody titer exceeding 1:2430 at any time who maintained a response ([3]; another study, 7 of 65): 10.8%
- patients with titers exceeding 1:2430 who developed IRs ([3]; another study, 31 of 52): 60%
- patients who never had an antibody titer above 1:2430 who maintained a response ([3]; another study, 58/65): 89.2%
- patients who developed high titer anti-pegloticase antibodies and subsequently lost response ([3]; one study, 69 of 169 patients): 41%
- participants with high antibody titers who maintained a response (serum urate <6 mg/dL) ([3]; second study): 1 of 52
- participants with high titers who developed IR ([3]; second study): 60%
- long-term safety [4]: No new safety signals were observed
- frequency of anaphylaxis ([5]; 4-week dosing frequency (6 of 126)): 4.8%
- anaphylaxis in total patients studied in the clinical program of IV KXX ([5]; 14 of 273 total patients): 5.1%
- patients with infusion reactions ([5]; KXX 8 mg every 2 weeks): 26%
- Adverse reaction: Anaphylaxis [5, 7]: 4 (5%) N (%)
- Adverse reaction: Chest Pain [5, 7]: 5 (6%) N (%)
- Adverse reaction: Constipation [5, 7]: 5 (6%) N (%)
- Adverse reaction: Contusion or Ecchymosis [5, 7]: 9 (11%) N (%)
- Adverse reaction: Gout Flare [5, 7]: 65 (77%) N (%)
- Adverse reaction: Infusion reaction [5, 7]: 22 (26%) N (%)
- Adverse reaction: Nasopharyngitis [5, 7]: 6 (7%) N (%)
- Adverse reaction: Nausea [5, 7]: 10 (12%) N (%)
- Adverse reaction: Vomiting [5, 7]: 4 (5%) N (%)
- patients with infusion reactions ([5]; KXX 8 mg every 4 weeks): 41%
- cases of congestive heart failure exacerbation ([5]; during the trials, KXX 8 mg every 2 weeks): Two
- frequency of anaphylaxis ([5]; every 2 weeks dosing regimen (8 of 123 patients)): 6.5%
- percentage of patients with any gout flare ([5]; first 3 months, KXX 8 mg every 2 weeks): 74%
- percentage of patients with any gout flare ([5]; first 3 months, KXX 8 mg every 4 weeks): 81%
- infusion reaction manifestation: chest discomfort, frequency ([5]; human, in vivo): 9.5%
- infusion reaction manifestation: chest pain, frequency ([5]; human, in vivo): 9.5%
- infusion reaction manifestation: dyspnea, frequency ([5]; human, in vivo): 7.1%
- infusion reaction manifestation: erythema, frequency ([5]; human, in vivo): 9.5%
- infusion reaction manifestation: pruritus, frequency ([5]; human, in vivo): 9.5%
- infusion reaction manifestation: urticaria, frequency ([5]; human, in vivo): 10.6%
- infusion reactions occurring with the first infusion ([5]; human, in vivo): approximately 3%
- infusion reactions that occurred during the time of infusion ([5]; human, in vivo): approximately 91%
- reactions in patients with glucose-6-phosphate dehydrogenase (G6PD) deficiency ([5]; human, in vivo): Life threatening hemolytic reactions and methemoglobinemia have been reported
- percentage of patients with any gout flare ([5]; subsequent 3 months, KXX 8 mg every 2 weeks): 41%
- percentage of patients with any gout flare ([5]; subsequent 3 months, KXX 8 mg every 4 weeks): 57%
- patients who developed anti-pegloticase antibodies ([6]; KXX every 2 weeks): 92%
- incidence of infusion reactions in patients with high anti-pegloticase antibody titer ([6]; KXX every 2 weeks group, 16 of 30): 53%
- incidence of infusion reactions in patients with undetectable or low antibody titers ([6]; human, in vivo): 6%
- patients with anti-PEG antibodies detected ([6]; patients treated with KXX): 42%
